Experimental data as given in patent US20100196310A1, “METHODS OF TREATING CANCER BY ADMINISTERING HUMAN IL-18 COMBINATIONS” (SMITHKLINE BEECHAM CORPORATION, priority 2007, published 2010).
Like-named read-outs stand apart in the source and are kept apart here.

Experiments:
[1] = tested on: murine colon carcinoma, Colo 26; experiment: IL-18 and 5-FU combination therapy in syngeneic model of murine colon cancer Colo26; assay type: in vivo, BALB/c mice; settings: monotherapy with 5-FU alone or mIL-18 alone
Experimental: This study aimed to evaluate the efficacy of mIL-18 (SEQ ID NO:2) combination therapy with 5-fluorouracil (5-FU), as compared to monotherapy with 5-FU, or mIL-18 (SEQ ID NO:2) alone. Our study was performed in a well established syngeneic subcutaneous model of murine colon carcinoma, Colo 26, in BALB/c mice. The dosing with mIL-18 (SEQ ID NO:2) was performed daily with 10 μg/mouse s.c. on days 10-30 after tumor inoculation. The dosing with 5-FU was performed i.p. twice a week in the ascending dose: 27, 45 and 74 μg/mouse.
The data comparing tumor volumes in different treatment groups were evaluated at a selected representative time-point, and were expressed as mean+/−SD (FIG. 21), and as median+/−range (FIG. 22). The data were first checked for normal distribution (Gaussian approximation), and standard deviation values were compared to make sure that there is an equal variance. […] Therefore, a non-parametric test (Kruskal-Wallis analysis and Dunn's comparison test) was used for the statistical evaluation. […] FIG. 24 (median+/−SD) and FIG. 25 (mean+/−SD) show the effect of IL-18 and 5-FU combination therapy in same Colo26 syngeneic colon tumor model. […]
Survival of mice bearing Colo26 in different treatment groups was plotted in a Kaplan-Meyer survival curve analysis, and evaluated by Logrank test, and is shown in FIG. 26. […]

[2] = cited from earlier work
[3] = tested on: EL-4 murine T-lymphoma cells; experiment: IL-18 combination with doxorubicin in EL-4 T cell lymphoma (survival, increase in lifespan); assay type: in vivo, C57/BL/6 mice
Experimental: Studies were performed in female C57/BL/6 mice. As a general protocol, C57/BL mice were injected I.P. with 0.2 cc of stock EL-4 cells. EL-4 murine T-lymphoma cells were expanded in RPMI w/10% FCS. All animals were randomized to six or seven mice per study group with food and water ad libitum.
EL-4 cells were harvested on day 0, counted and implanted I.P. with 5×10^5 EL-4 lymphoma cells. Animals were randomized to treatment groups of 6/7 animals on Day 3. Doxorubicin was administered IV on Days 3 &10, pos-implantation. mIL-18 (SEQ ID NO:2) was administered S.C. on Days 3-16. The animals were observed daily for toxicity and mortality.
All animals tolerated dosing schedule and levels well by gross observation. On day 16, all dosing was terminated, and median vehicle death occurred on day 17.5. All vehicle mice expired between days 16-18 post-implantation. Increase in lifespan was calculated by study group/vehicle group—1×100%. For mIL-18 (SEQ ID NO:2) combination therapy with doxorubicin in EL-4 T cell lymphoma, the data were analyzed with respect to median survival time and increase in lifespan.

NK cells [4] = experiment: NK cytotoxicity assay in the EL-4 T-cell lymphoma model; settings: FIG. 12; 21 hours post-treatment
MOPC-315 plasmacytoma = experiment: IL-18 monotherapy in advanced MOPC-315 plasmacytoma model; assay type: in vivo, mice
NK cells [5] = tested on: NK cells

**Q.** For `O=c1[nH]cc(F)c(=O)[nH]1` [5-FU, 5-fluorouracil, reference compound], which “therapeutic effect on tumor growth compared to control” value [1] is on record?
**A.** Its value is “did not show a therapeutic effect better than a control”.

**Q.** With “human IL-18: recombinant mature form of human interleukin-18, expressed in a non-pathogenic strain of Escherichia coli” as the molecule, how does the “toxicity at the highest dose tested” value ([2]; 2000 μg/kg administered weekly for up to 24 weeks, patients with renal cell carcinoma and metastatic melanoma) read?
**A.** Its value is “no significant toxicity”.

**Q.** What about the maximum tolerated dose ([2]; doses up to 2000 μg/kg weekly for up to 24 weeks) of the same molecule?
**A.** Its maximum tolerated dose is “not identified”.

**Q.** For `COc1cccc2c1C(=O)c1c(O)c3c(c(O)c1C2=O)C[C@@](O)(C(=O)CO)C[C@@H]3O[C@H]1C[C@H](N)[C@H](O)[C@H](C)O1` [doxorubicin, Doxorubicin, reference compound], which increase in lifespan ([3]; doxorubicin monotherapy, 12 mg/kg, IV days 3 & 10) is on record?
**A.** Its increase in lifespan is “minimal increase in lifespan”.

**Q.** What about the NK cytotoxicity (NK cells [4]) of the same molecule?
**A.** Its NK cytotoxicity is “impaired”.

B1: mIL-18: Recombinant murine IL-18 (SEQ ID NO:2), used in the pre-clinical studies (protein)
chain: NFGRLHCTTAVIRNINDQVLFVDKRQPVFEDMTDIDQSASEPQTRLIIYMYKDSEVRGLAVTLSVKDSKMSTLSCKNKIISFEEMDPPENIDDIQSDLIFFQKRVPGHNKMEFESSLYEGHFLACQKEDDAFKLILKKKDENGDKSVMFTLTNLHQS
modifications: Murine
**Q.** Which increase in lifespan ([3]; IL-18 monotherapy at 1, 5 and 25 ug/dose, S.C. days 3-16) does the source give for B1 here?
**A.** Its increase in lifespan is “did not show any increase in lifespan”.

**Q.** What about the “therapeutic effect on tumor growth compared to control” value [1] of the same molecule?
**A.** The value was “did not show a therapeutic effect better than a control”.

**Q.** And the anti-tumor effect (MOPC-315 plasmacytoma; advanced tumor, 5 mg/Kg daily for approximately 30 days)?
**A.** The anti-tumor effect was “reproducible tumor regressions and cure”.

**Q.** What about the “outcome of rechallenge with parental tumor” value (MOPC-315 plasmacytoma; after cure by murine IL-18) of the same molecule?
**A.** The value was “tumor rejection”.

**Q.** And the “anti-tumor effect in SCID mice” value (MOPC-315 plasmacytoma; severe combined immunodeficient mice bearing advanced MOPC-315 tumors, similar schedule)?
**A.** The value was “failed to regress”.

**Q.** What about the NK cytotoxicity (NK cells [5]) of the same molecule?
**A.** The NK cytotoxicity was “robust NK cytotoxicity”.
